# From publication PMC7736295 (Cell Discovery, 2020)
# Positions count from the first letter of the chain named. Names may count otherwise.
# T1: CASK-CaMK (residues 1-319) (UniProt Q62915 1-319)
# T1 chain: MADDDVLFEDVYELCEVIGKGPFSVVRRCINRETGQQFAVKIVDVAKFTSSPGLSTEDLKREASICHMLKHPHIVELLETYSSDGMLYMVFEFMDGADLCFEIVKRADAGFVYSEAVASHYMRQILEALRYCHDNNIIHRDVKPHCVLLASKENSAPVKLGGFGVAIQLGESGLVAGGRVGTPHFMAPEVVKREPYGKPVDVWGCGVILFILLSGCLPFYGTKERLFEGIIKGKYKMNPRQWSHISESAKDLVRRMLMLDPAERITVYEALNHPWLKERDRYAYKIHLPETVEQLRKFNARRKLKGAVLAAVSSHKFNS
# T2: CASK-CaMK (residues 1-301) (UniProt Q62915 1-301)
# T2 chain: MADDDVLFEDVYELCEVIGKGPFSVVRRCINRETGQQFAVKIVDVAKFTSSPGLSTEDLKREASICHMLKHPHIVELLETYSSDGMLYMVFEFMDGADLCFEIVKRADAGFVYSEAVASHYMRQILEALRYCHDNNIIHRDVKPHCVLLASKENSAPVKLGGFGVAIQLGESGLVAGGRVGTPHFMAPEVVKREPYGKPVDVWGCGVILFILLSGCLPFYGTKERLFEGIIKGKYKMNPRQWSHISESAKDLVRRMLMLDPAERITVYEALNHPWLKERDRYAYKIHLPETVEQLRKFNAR
# T3: CASK-CaMK (residues 1-337) (UniProt Q62915 1-337)
# T3 construct: CaMK domain of CASK, residues 1-337; also called CASK(residues 1-337); source: E. coli BL21 (DE3), purified (Ni2+-Sepharose, size-exclusion chromatography); not shown: Trx, N-terminal, cleaved; His6, N-terminal, cleaved
# T3 sequence (looked up): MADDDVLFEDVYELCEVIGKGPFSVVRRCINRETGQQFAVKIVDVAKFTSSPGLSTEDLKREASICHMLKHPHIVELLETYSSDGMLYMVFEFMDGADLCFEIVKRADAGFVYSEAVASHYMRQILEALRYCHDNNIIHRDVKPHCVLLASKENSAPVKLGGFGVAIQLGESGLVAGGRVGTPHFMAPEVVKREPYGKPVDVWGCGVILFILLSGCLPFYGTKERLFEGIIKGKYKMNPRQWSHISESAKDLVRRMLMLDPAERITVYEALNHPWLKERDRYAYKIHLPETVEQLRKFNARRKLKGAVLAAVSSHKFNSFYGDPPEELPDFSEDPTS
# T4: Mint1-CID (residues 338-397) I352A I355A I359A (UniProt O35430 338-397, I352A | I355A | I359A)
# T4 sequence: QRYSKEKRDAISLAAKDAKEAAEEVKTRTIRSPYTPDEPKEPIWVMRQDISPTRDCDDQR
# B1: Mint1-CID (residues 338-397) (domain or fragment, UniProt O35430 338-397, looked up)
# chain: T4 sequence with A15I, A18I, A22I
# notes: also called the entire CID; the whole CID; source: E. coli BL21 (DE3), purified (Ni2+-Sepharose, size-exclusion chromatography); not shown: Trx, N-terminal, cleaved; His6, N-terminal, cleaved
# B2: Mint1-CID (residues 338-397) I352A I355A I359A (domain or fragment, UniProt O35430 338-397, looked up)
# chain: T4 sequence
# notes: Mint1-CID residues 338-397 with I352A, I355A and I359A; Probably made as the wild-type fragment (E. coli, Trx-His6 tag removed); also called the mutations in the N-CID; source: recombinant protein
# B3: Mint1-CID (residues 338-397) W381A (domain or fragment, UniProt O35430 338-397, looked up)
# chain: T4 sequence with A15I, A18I, A22I, W44A
# notes: Mint1-CID residues 338-397 with W381A; Probably made as the wild-type fragment (E. coli, Trx-His6 tag removed); also called the C-CID W381A mutation; source: recombinant protein
# B4: CASK-CaMK (residues 1-337) (domain or fragment)
# chain: T3 sequence (looked up)
# B5: Mint1-C-CID (residues 371-397) (domain or fragment, UniProt O35430 371-397, looked up)
# chain: YTPDEPKEPIWVMRQDISPTRDCDDQR
# notes: C-terminal half of the CID of Mint1, residues 371-397; source: E. coli BL21 (DE3), purified (Ni2+-Sepharose, size-exclusion chromatography); not shown: Trx, N-terminal, cleaved; His6, N-terminal, cleaved
# What was measured:
# [1] = molecular target: T1, CASK-CaMK (residues 1-319); test: ITC
# [2] = molecular target: B4; test: ITC
# [3] = molecular target: T2, CASK-CaMK (residues 1-301); test: ITC
# [4] = molecular target: T3, CASK-CaMK (residues 1-337); test: ITC; MicroCalorimeter ITC200, 25 °C; Mint1 fragments and mutants injected into CASK-CaMK in the cell; repeated three times; details: both partners purified
# [5] = molecular target: T4, Mint1-CID (residues 338-397) I352A …; test: ITC
binder,measurement,setting,value
B1,Kd,[1],30 nM
same,Kd,[2],17 nM
same,Kd,[3],42 nM
same,Kd,[4],~20 nM
B2,fold reduction of the binding affinity against the wild-type CID,[4],~15 fold
B3,Kd,[4],~55000 nM
B4,Kd,[5],270 nM
B5,Kd,[4],~500 nM
